The text below walks through data of US20260218282A1.

The target in the test is pMHC monomer containing HLA-A*02:01 restricted NY-ESO-1 C9V peptide (human). Description: capture of TCR-transduced PBMCs on pMHC-labeled nanovials (20 µg/ml pMHC), flow cytometry.

1G4 TCR yielded a fraction of bound live cells with NGFR expression of 93.9%.
